Data on 33 variants can be found in publication PMC11362571, “Multistage protective anti-CelTOS monoclonal antibodies with cross-species sterile protection against malaria” (Nature Communications, 2024).

B1: monoclonal antibody 7g7 (IgG) [mouse] / P. vivax CelTOS (Sal-1, PVX_123510, residue L36-D196) [P. vivax] (parent complex)
chain 1: EIQLQQSGPELVKPGASVKVSCKASGYSFTDYNMYWVKQSHGKSLEWIGYIDPYNGGTRYNQKFRDKATLTVDKSSSTAFMHLNSLTSEDSAVYYCARGYYYGNPLHFDVWGAGTTVTVSSAKTTPPSVYPLAPGSAAQTNSMVTLGCLVKGYFPEPVTVTWNSGSLSSGVHTFPAVLQSDLYTLSSSVTVPSSTWPSETVTCNVAHPASSTKVDKKIVPR
chain 2: QIVLTQSPAIMSASPGEKVTMTCSASSSVSYIHWYQQKSGTSPKRWIYDTSKLASGVPARFSGSGSGTSYSLTISSMEAEDAATYYCQQWISYPATFGAGTKLELKRADAAPTVSIFPPSSEQLTSGGASVVCFLNNFYPKDINVKWKIDGSERQNGVLNSWTDQDSKDSTYSMSSTLTLTKDEYERHNSYTCEATHKTSTSPIVKSFNRNEC
chain 3: LRGKSGSTASSSLEGGSEFSERIGNSLSSFLSESASLEVIGNELADNIANEIVSSLQKDSASFLQSGFDVKTQLKATAKKVLVEALKAALEPTEKIVASTIKPPRVSEDAYFLLGPVVKTLFNKVEDVLHKPIPDTIWEYESKGSLEEEEAEDEFSDELLD
B2: monoclonal antibody 4h12 (IgG) [mouse] / P. falciparum CelTOS (3D7, PF3D7_1216600, residue F25-D182) [P. falciparum] (parent complex)
chain 1: QVQLQQSGPELVKPGASVKISCKASGYALSSSWLNWVKQRPGQGLEWIGRIFPGDGDTNYNGKFKGKATLTADKSSSTAYLQLSSLTSVDSAVYFCARGGTVVFDYWGQGTTLTVSSAKTTPPSVYPLAPGSAAQTNSMVTLGCLVKGYFPEPVTVTWNSGSLSSGVHTFPAVLQSDLYTLSSSVTVPSSTWPSETVTCNVAHPASSTKVDKKIVPRD
chain 2: DIVMTQSHKFMSTSVGDRVNITCKASQDVGIAVAWYQQRPGQSPKLLIYWASKRHTGVHDRFTGTGSGTDFTLTISTVQSEDLADYFCQQYSNSLTFGAGTTLELSRADAAPTVSIFPPSSEQLTSGGASVVCFLNNFYPKDINVKWKIDGSERQNGVLNSWTDQDSKDSTYSMSSTLTLTKDEYERHNSYACEATHKTSTSPIVKSFNR
chain 3: FRGNNGHNSSSSLYNGSQFIEQLNNSFTSAFLESQSMNKIGDDLAETISNELVSVLQKNSPTFLESSFDIKSEVKKHAKSMLKELIKVGLPSFENLVAENVKPPKVDPATYGIIVPVLTSLFNKVETAVGAKVSDEIWNYNSPDVSESEESLSDDFFD

In the first test the parent is B1. The test is described as follows: ELISA; parent: 100; read off a plot.
In the case of chain 3 F112A, chain 3 L113A, chain 3 L114A, the percent of parent was roughly 50%.
On the same count and under the same terms, with chain 3 S29A, chain 3 F30A, chain 3 L31A the figure was roughly 100%; with chain 3 E108A, chain 3 D109A, roughly 68%; with chain 3 Q57A, chain 3 K58A, chain 3 D59A, roughly 98%.
The same measure, in the same setting: with chain 3 G16A, chain 3 S17A, chain 3 E18A the figure was roughly 98%; with chain 3 R105A, chain 3 V106A, chain 3 S107A, roughly 77%; with chain 3 K102A, chain 3 P103A, chain 3 P104A, roughly 86%.
The same measure, in the same setting: with chain 3 W138A, chain 3 E139A, chain 3 Y140A the figure was roughly 1%; with chain 3 F63A, chain 3 L64A, chain 3 Q65A, roughly 100%.
For chain 3 S60A, chain 3 S62A, the percent of parent is roughly 100%.
Still for that read-out and setting: the figure for chain 3 G67A, chain 3 F68A, chain 3 D69A is roughly 99%.
On the same count and under the same terms, with chain 3 G115A, chain 3 P116A, chain 3 V117A the figure was roughly 94%; with chain 3 L129A, chain 3 H130A, chain 3 K131A, roughly 1%.
Take chain 3 E14A, chain 3 G15A, chain 3 G16A: the percent of parent was roughly 100%.
The same measure, in the same setting: the figure for chain 3 P132A, chain 3 I133A, chain 3 P134A is roughly 1%; for chain 3 S32A, chain 3 E33A, chain 3 S34A it is roughly 83%; for chain 3 S36A, chain 3 L37A it is roughly 93%.

The variants in a further test derive from B2. The test is described as follows: ELISA; parent: 100; read off a plot. In general terms: ELISA stands for enzyme-linked immunosorbent assay.
For chain 3 V129A, chain 3 G130A, the percent of parent is roughly 100%.
As to chain 3 F63A, chain 3 L64A, chain 3 E65A, the percent of parent is roughly 0%.
On the same count and under the same terms, the figure for chain 3 G112A, chain 3 I113A, chain 3 I114A is roughly 98%.
Regarding chain 3 D135A, chain 3 E136A, chain 3 I137A, the percent of parent is roughly 98%.
Same read-out and setting: with chain 3 L32A, chain 3 E33A, chain 3 S34A the figure was roughly 91%; with chain 3 S67A, chain 3 F68A, chain 3 D69A, roughly 94%; with chain 3 S60A, chain 3 P61A, chain 3 T62A, roughly 27%.
The same measure, in the same setting: the figure for chain 3 G16A, chain 3 S17A, chain 3 Q18A is roughly 93%.
The same measure, in the same setting: the figure for chain 3 K132A, chain 3 V133A, chain 3 S134A is roughly 99%; for chain 3 S29A, chain 3 F31A it is roughly 92%; for chain 3 Q57A, chain 3 K58A, chain 3 N59A it is roughly 1%.
In the case of chain 3 P108A, the percent of parent was roughly 96%.
The same measure, in the same setting: with chain 3 W138A, chain 3 N139A, chain 3 Y140A the figure was roughly 93%; with chain 3 Q35A, chain 3 S36A, chain 3 M37A, roughly 100%.
Same read-out and setting: the figure for chain 3 I70A, chain 3 K71A, chain 3 S72A, chain 3 E73A is roughly 75%.
On the same count and under the same terms, the figure for chain 3 Y14A, chain 3 N15A, chain 3 G16A is roughly 96%.
